T1: recombinant Cmr2 (TTHB160), no tag (Thermus thermophilus HB8, UniProt Q53W09 1-584)
T1 sequence (looked up): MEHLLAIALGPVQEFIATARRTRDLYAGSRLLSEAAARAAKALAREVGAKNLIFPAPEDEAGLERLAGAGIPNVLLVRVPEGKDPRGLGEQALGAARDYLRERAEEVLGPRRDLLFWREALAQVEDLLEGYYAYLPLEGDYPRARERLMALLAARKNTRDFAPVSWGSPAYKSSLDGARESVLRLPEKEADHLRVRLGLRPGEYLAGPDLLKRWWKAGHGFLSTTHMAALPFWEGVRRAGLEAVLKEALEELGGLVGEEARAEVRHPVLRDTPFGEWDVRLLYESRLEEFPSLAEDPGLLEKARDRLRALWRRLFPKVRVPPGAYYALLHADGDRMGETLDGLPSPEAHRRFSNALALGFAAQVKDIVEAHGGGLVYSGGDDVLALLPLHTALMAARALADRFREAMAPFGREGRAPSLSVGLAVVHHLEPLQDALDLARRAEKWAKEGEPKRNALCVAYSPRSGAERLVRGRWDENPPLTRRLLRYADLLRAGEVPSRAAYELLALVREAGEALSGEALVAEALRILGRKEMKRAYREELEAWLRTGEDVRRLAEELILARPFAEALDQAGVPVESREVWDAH

B1: Cmr5 (TTHB164) (natural protein, Thermus thermophilus HB8 (endogenous), UniProt Q53W05 1-114, looked up)
chain: MRTRSQVWAQKAYEKVREAAKGEGRGEYRDMALKLPVLVRQAGLSQALAFVDSRGKEAHKALGNDLAQVLGYRDLRELAEAAREAELLQYLRLTREVLAAAEWFKRFAQALIEE
B2: Cmr6 (TTHB165) with a (His)6 tag at its C-terminus (natural protein, Thermus thermophilus HB8, UniProt Q53W04 2-348, looked up)
chain: GRRSALEGVRLPQGKEPHRGLWLDKFLRSARREDTEAKRVLVREAAGIPEPGEYRAFFKRYRGALEALGAEIREARTLSRLVVGLGGEGVLETALTLHRAYGVPYIPGSALKGLASRYAHLYLEGEAWRRDLARFHRGEAQAGLFGTTEEQGLVVFWDALPLPGKWKLHPDILNPHHPDYYGSVKAPPADWDGPKPVPFLSATGTFLLALSPAPGVSPEEAGPWLRAAWRILAWALREEGVGAKTSSGYGRMALEEPASQGEKPLAPGPSPVLQDLLTWARALSYREVPRFLASQAEAILGLSVEEAQALRRALEERGFLRNPQDLKRWRKEHPGLEGVLAKLGLSA
B3: Cmr4 (TTHB163) (natural protein, Thermus thermophilus HB8 (endogenous), UniProt Q53W06 2-286, looked up)
chain: SHVALLFLHALSPLHAGTGQGIGAIDLPIAREKATGIPYLPGSSLKGVLRDRASAWDRDTLFAVFGPDTENASEHAGAVQVGDAKLLLLPVRSLYGVFALVASPYLLERFRREALMAGLQPPGVPGLQDPTRVLLAPGSRLLGDGEKVYLEDLDLKAQGEEGVAAWERWLAERTEAPVLGRLAVVHDDLMGFLLETATEVVARIRLDDETKTVAKGALWYEESLPAESLLYALVRADRSFRKGKELPPEGVWALFRGVLEEGGGVLQLGGKATVGRGLCRIVVGR
B4: Cmr1 (TTHB162) (natural protein, Thermus thermophilus HB8 (endogenous), UniProt Q53W07 1-395, looked up)
chain: MRRAFREAFSPRRKEEGGVLVRRDGARVLAWERTYTLLTPLFGGGVEPREADPVSVVRATAVRGHLRFWWRAVRGWRAGGSLERLWELESALFGSAGEGGASPLSVEVEVLREGEKVGIAQYGRAVQWYLGFPLRGDKEWAPVKEGVAFRLRLRFPEKVGELNFWEELEAALWAWETFGGIGARTRRGFGALLPQGAGVPGEEEIREKLRQYGQKAGWPEGVPHLTPKSFVRVVPLSWRELAERYQAFRQARPGGDPRSPGRSYWPEPDGVRRLTGRHAPHHLPRHPVHKFPRAHFGLPIIFHFKDRGDPPDTTLRLKEADRRASPLLFRPLGEGQKPCVVAVLEGARFPGEKLVLEGKDGRTWDVDPWLTPEEAQKIPVLGGEVDPVLAFVKSL
B5: Cmr2 (TTHB160) (natural protein, Thermus thermophilus HB8 (endogenous), UniProt Q53W09 1-584, looked up)
chain: T1 sequence (looked up)
B6: recombinant Cmr3 (TTHB161), no tag (natural protein, Thermus thermophilus HB8, UniProt Q53W08 1-361, looked up)
chain: MLIEPRDPLIVRDGRPFTNSPGARAKSLPFPLPQTLAGAYRTRRALLEGLPLPERAEEVLRWGLRGPLLAEEGEGGWRLLAPRPLDALKLGEALYPLRPLELPQGAGTNLPEGLSPVGLPSPALKEKPAPLPAFWYWESFLEWLLQDAPAGFAPRGHEGPVPETRTHVALDPAAQTAREGFLFQTSGLEFVRGRRRLALVLWPEGPEPEGVFPLGGERRLAFWQKGGPGVPPLPEEVVAGLLRHRAARLVFLTPAFLGEAYLPKGRAFQGASVVAAVVGRPLAVSGWNLKEGKPKPSRRAVPAGSVYFVRLPEAWGEGEVRDWAEKVWFQNLSEEEQDRRDGFGLAALGLWDGKLRRWEEA
B7: Cmr3 (TTHB161) (natural protein, Thermus thermophilus HB8 (endogenous), UniProt Q53W08 1-361, looked up)
chain: B6 chain

Tests used:
[1] = biological target: B2; assay: native MS
[2] = biological target: B3; assay: negative-stain electron microscopy, single particle reconstruction
[3] = biological target: B4; assay: affinity purification with mass spectrometry
[4] = biological target: B5; assay: affinity purification with mass spectrometry
[5] = biological target: B7; assay: affinity purification with mass spectrometry
[6] = biological target: the molecule itself; assay: negative-stain electron microscopy, single particle reconstruction
[7] = biological target: T1, recombinant Cmr2 (TTHB160), no tag; assay: native MS
[8] = biological target: B5; assay: negative-stain electron microscopy, single particle reconstruction

Binder: B1
- stoichiometry N [1]: 3 copies per Cmr6
- binding result [2]: binds

Binder: B2
- binding result [3]: binds
- binding result [4]: binds
- binding result [5]: binds

Binder: B3
- stoichiometry N [1]: 4 copies per Cmr6
- stoichiometry N [6]: 4

Binder: B4
- stoichiometry N [1]: 1 copies per Cmr6

Binder: B5
- stoichiometry N [1]: 1 copies per Cmr6

Binder: B6
- binding result [7]: binds

Binder: B7
- stoichiometry N [1]: 1 copies per Cmr6
- binding result [8]: binds
